Measured values reported in patent publication US20110053865A1.
Where two headings read alike, the source gives them in different places.

Legend:
[1] = molecular target: recombinant human IL-23 (p19/p40) (human) (UniProt Q9NPF7); assay: cell-based or functional assay
[2] = molecular target: cynomolgus IL-23 (cynomolgus); assay: cell-based or functional assay
[3] = molecular target: recombinant human IL-23 (p19/p40) (human) (UniProt Q9NPF7); assay: inhibition ELISA, hIL-23/hIL-23R-Fc
[4] = molecular target: recombinant human IL-23 (p19/p40) (human) (UniProt Q9NPF7); assay: cell-based or functional assay; remark: listed apart in the source
[5] = molecular target: cynomolgus IL-23 (cynomolgus); assay: cell-based or functional assay; remark: listed apart in the source
[6] = molecular target: native human IL-23 (supernatant of SAC-stimulated THP-1 cells) (human) (UniProt Q9NPF7); assay: cell-based or functional assay
Sequence of native human IL-23 (supernatant of SAC-stimulated THP-1 cells) (human) (Q9NPF7 20-189, chain 1 of 2): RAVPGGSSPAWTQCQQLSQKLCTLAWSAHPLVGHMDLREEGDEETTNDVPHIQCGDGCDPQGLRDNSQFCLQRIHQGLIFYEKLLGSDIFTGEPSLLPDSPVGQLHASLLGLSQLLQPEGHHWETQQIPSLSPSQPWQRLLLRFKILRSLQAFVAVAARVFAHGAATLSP
Sequence of native human IL-23 (supernatant of SAC-stimulated THP-1 cells) (human) (P29460 23-328, chain 2 of 2, further chain): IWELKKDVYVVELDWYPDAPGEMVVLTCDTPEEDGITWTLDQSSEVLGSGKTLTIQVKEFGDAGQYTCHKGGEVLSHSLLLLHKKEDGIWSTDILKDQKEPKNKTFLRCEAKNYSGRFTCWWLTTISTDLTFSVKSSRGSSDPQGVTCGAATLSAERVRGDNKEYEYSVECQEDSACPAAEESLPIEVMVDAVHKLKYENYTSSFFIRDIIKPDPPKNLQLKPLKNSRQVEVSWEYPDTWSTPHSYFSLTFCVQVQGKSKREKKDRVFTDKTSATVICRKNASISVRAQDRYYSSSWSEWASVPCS

Sequence of recombinant human IL-23 (p19/p40) (human) (Q9NPF7 20-189 limits assumed, chain 1 of 2): as the sequence (Q9NPF7 20-189, chain 1 of 2) above
Sequence of recombinant human IL-23 (p19/p40) (human) (P29460 23-328 limits assumed, chain 2 of 2, further chain): as the sequence (P29460 23-328, chain 2 of 2, further chain) above

Binder	IC50, splenocyte assay, 19 pM hIL-23 [4] [pM]	IC50, splenocyte assay, 3.8 pM cIL-23 [5] [pM]	also measured
P23IL119A3V16-9GS-ALB8-9GS-81A12V4 (bispecific antibody, part only; not given: anti-albumin Nanobody, part only) chain, part: EVQLLESGGGLVQPGGSLRLSCAASGRIFSLPASGNIFNLLTIAWYRQAPGKGRELVATINSGSRTYYADSVKGRFTISRDNSKKTLYLQMNSLRPEDTAVYYCQTSGSGSPNFWGQGTLVTVSSGGGGSGGGSGGGGSGGGSEVQLLESGGGLVQPGGSLRLSCAASGRTLSSYAMGWFRQAPGKGREFVSRISQGGTAIYYADSVKGRFTISRDNSKNTLYLQMNSLRPEDTAVYYCAKDPSPYYRGSAYLLSGSYDSWGQGTLVTVSS	4.6	6.7	IC50, splenocyte assay, 19 pM hIL-23 [1]: 3.6 pM; IC50, splenocyte assay, 3.8 pM cIL-23 [2]: 5.4 pM; IC50 [3]: 0.023 nM; IC50, BA/F3 proliferation assay, 76 pM hIL-23 [4]: 49 pM
P23IL37D5-9GS-ALB1-9GS-20B11 (bispecific antibody, part only; not given: anti-albumin Nanobody, part only) chain, part: EVQLVESGGGLVQPGGSLRLSCAASGFTLDYLAIGWFRQAPGKEREGVSCVSSSGQYTYYADSVKGRFTISRDNAESTVYLQMNSLKPEDTAVYYCATDPECYRVRGYYNGEYDYWGQGTQVTVSSGGGGSGGGSGGGGSGGGSEVQLVESGGGLVQAGGSLRLSCAVSGDTFSVYGMGWFRQAPGMEREFVAGISWNAGITAYTDTLKGRFTISRDRAKNTMYLQMNSLQPEDTAVYYCAADVTRHYIATRSKVDASMYDYWGQGTQVTVSS	–	–	IC50, BAF3 proliferation assay, 76 pM hIL-23 [4]: 19.5 pM; IC50, splenocyte assay, 19 pM native hIL-23 (Expt 3) [6]: 12 pM
P23IL-121A2-9GS-ALB1-9GS-119G7 (bispecific antibody, part only; not given: anti-albumin Nanobody, part only) chain, part: EVQLVESGGGLVQAGGSLRLSCAASGSIFNFNYMGWFRQAPGKEREFVAAIRWSGSSTYYADSVKGRFTISRDDAKNTVALQMNSLKPEDTAIYYCALRKGIPYSTSDRVIKGVNDYDYWGQGTQVTVSSGGGGSGGGSGGGGSGGGSEVQLVESGGGLVQAGGSLTLSCAVSGLTFNNYAMGWFRQVPGKEREFVAAISRSGLRTFYSDSVKGRFTISRDSAKSTVYVQMNNLKPEDTAVYFCAADRRTYYSEGPSLTDTLRYDYWGQGTQVTVSS	39	–	–
P23IL20B11-9GS-ALB1-9GS-37D5 (bispecific antibody, part only; not given: anti-albumin Nanobody, part only) chain, part: EVQLVESGGGLVQAGGSLRLSCAVSGDTFSVYGMGWFRQAPGMEREFVAGISWNAGITAYTDTLKGRFTISRDRAKNTMYLQMNSLQPEDTAVYYCAADVTRHYIATRSKVDASMYDYWGQGTQVTVSSGGGGSGGGSGGGGSGGGSEVQLVESGGGLVQPGGSLRLSCAASGFTLDYLAIGWFRQAPGKEREGVSCVSSSGQYTYYADSVKGRFTISRDNAESTVYLQMNSLKPEDTAVYYCATDPECYRVRGYYNGEYDYWGQGTQVTVSS	4.47	8.59	–
P23IL-121A2-9GS-ALB1-9GS-81G2 (bispecific antibody, part only; not given: anti-albumin Nanobody, part only) chain, part: EVQLVESGGGLVQAGGSLRLSCAASGSIFNFNYMGWFRQAPGKEREFVAAIRWSGSSTYYADSVKGRFTISRDDAKNTVALQMNSLKPEDTAIYYCALRKGIPYSTSDRVIKGVNDYDYWGQGTQVTVSSGGGGSGGGSGGGGSGGGSEVQLVESGGGLVQPGGSLRLSCIASGLPFSTKSMGWFRQAPGKEREFVARISPGGTSRYYGDFVKGRFAISRDNAKNTTWLQMNSLKAEDTAVYYCASGERSTYIGSNYYRTNEYDYWGTGTQVTVSS	8	–	–

Further lines, with some results ahead:

IC50, splenocyte assay, 19 pM hIL-23 [4] [pM]	IC50, splenocyte assay, 3.8 pM cIL-23 [5] [pM]	Binder	also measured
4	3	P23IL119A3-9GS-ALB1-9GS-81G2 (bispecific antibody, part only; not given: anti-albumin Nanobody, part only) chain, part: EVQLVESGGGLVQAGGSLRLSCAASGRIFSLPASGNIFNLLTIAWHRQAPGMQRELVATINSGSRTNYADSVKGRFTISRDNAQKTVYLQMNNLKPEDTAVYYCQTSGSGSPNFWGQGTQVTVSSGGGGSGGGSGGGGSGGGSEVQLVESGGGLVQPGGSLRLSCIASGLPFSTKSMGWFRQAPGKEREFVARISPGGTSRYYGDFVKGRFAISRDNAKNTTWLQMNSLKAEDTAVYYCASGERSTYIGSNYYRTNEYDYWGTGTQVTVSS	–
29.8	419	P23IL37D5-9GS-ALB1 (bispecific antibody, part only; not given: anti-albumin Nanobody, part only) chain, part: EVQLVESGGGLVQPGGSLRLSCAASGFTLDYLAIGWFRQAPGKEREGVSCVSSSGQYTYYADSVKGRFTISRDNAESTVYLQMNSLKPEDTAVYYCATDPECYRVRGYYNGEYDYWGQGTQVTVSSGGGGSGGGS	IC50 [3]: 0.037 nM; IC50, splenocyte assay, 19 pM native hIL-23 (Expt 3) [6]: 60 pM
2.5	3.3	P23IL119A3-9GS-ALB1-9GS-81A12 (bispecific antibody, part only; not given: anti-albumin Nanobody, part only) chain, part: EVQLVESGGGLVQAGGSLRLSCAASGRIFSLPASGNIFNLLTIAWHRQAPGMQRELVATINSGSRTNYADSVKGRFTISRDNAQKTVYLQMNNLKPEDTAVYYCQTSGSGSPNFWGQGTQVTVSSGGGGSGGGSGGGGSGGGSEVQLVESGGGLVQAGGSLRLSCAASGRTLSSYAMGWFRQAPGKEREFVARISQGGTAIYYADSVKGRFTISRDNAKNTVYLQMNSLKPEDTAVYYCAKDPSPYYRGSAYLLSGSYDSWGQGTQVTVSS	–
5.77	5.75	P23IL37D5-15GS-ALB1-15GS-20B11 (bispecific antibody, part only; not given: anti-albumin Nanobody and linkers, not shown: small tags and cut ends) chain, part: EVQLVESGGGLVQPGGSLRLSCAASGFTLDYLAIGWFRQAPGKEREGVSCVSSSGQYTYYADSVKGRFTISRDNAESTVYLQMNSLKPEDTAVYYCATDPECYRVRGYYNGEYDYWGQGTQVTVSSEVQLVESGGGLVQAGGSLRLSCAVSGDTFSVYGMGWFRQAPGMEREFVAGISWNAGITAYTDTLKGRFTISRDRAKNTMYLQMNSLQPEDTAVYYCAADVTRHYIATRSKVDASMYDYWGQGTQVTVSS	–
